Results as given in patent US20230416363A1 (KADMON, published 2023).

Tests used:
[1] = target: T1, mPD1 (soluble, ELISA of Examples 20 and 24) (mouse, UniProt Q02242 25-167, limits assumed); test: blocking ELISA, mPD1 to mPDL1
T1 construct: also called Biotin-mPD1
T1 sequence (looked up): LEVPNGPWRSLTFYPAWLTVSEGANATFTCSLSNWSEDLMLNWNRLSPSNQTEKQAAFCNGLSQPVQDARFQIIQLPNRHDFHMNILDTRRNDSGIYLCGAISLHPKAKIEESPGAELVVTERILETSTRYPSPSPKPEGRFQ

[2] = target: T1, mPD1 (soluble, ELISA of Examples 20 and …); test: ELISA, mPD1
hPD-1-Fc [3] = target: T2, hPD-1-Fc (human, UniProt Q15116 25-167); test: SPR Biacore, hPD1-Fc (second m3A7 row)
T2 construct: domain: IgV domain; also called human PD-1-Fc; not shown: human IgG1 Fc
T2 sequence (Q15116 25-167 limits assumed): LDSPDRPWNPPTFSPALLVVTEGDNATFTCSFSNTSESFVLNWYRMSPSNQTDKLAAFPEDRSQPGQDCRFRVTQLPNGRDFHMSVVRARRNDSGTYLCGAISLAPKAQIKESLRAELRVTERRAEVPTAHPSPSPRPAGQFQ

mPD-1-Fc [4] = target: T3, mPD-1-Fc (mouse; human, UniProt Q02242 25-167, limits assumed); test: SPR Biacore, mPD1-Fc
T3 construct: domain: IgV domain; not shown: human IgG1 Fc
T3 sequence (looked up): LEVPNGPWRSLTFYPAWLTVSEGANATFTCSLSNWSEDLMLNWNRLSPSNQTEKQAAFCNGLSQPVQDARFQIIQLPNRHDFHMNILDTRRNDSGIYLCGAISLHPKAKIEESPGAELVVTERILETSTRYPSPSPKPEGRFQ

mPD-1-his [5] = target: T4, mPD-1-his (mouse, UniProt Q02242 25-167, limits assumed); test: SPR Biacore, mPD1-his
T4 construct: domain: IgV domain
T4 sequence: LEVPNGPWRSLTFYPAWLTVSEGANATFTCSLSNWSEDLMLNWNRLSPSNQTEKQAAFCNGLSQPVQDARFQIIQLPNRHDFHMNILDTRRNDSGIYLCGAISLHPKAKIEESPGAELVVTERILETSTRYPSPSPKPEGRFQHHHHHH

mPD-1-his [6] = target: T4, mPD-1-his; test: SPR Biacore, mPD1-his (second m3A7 row)
[7] = target: T5, mouse PD-1 expressed on cells (mouse, UniProt Q02242 25-288); test: cell-based or functional assay
T5 sequence (looked up): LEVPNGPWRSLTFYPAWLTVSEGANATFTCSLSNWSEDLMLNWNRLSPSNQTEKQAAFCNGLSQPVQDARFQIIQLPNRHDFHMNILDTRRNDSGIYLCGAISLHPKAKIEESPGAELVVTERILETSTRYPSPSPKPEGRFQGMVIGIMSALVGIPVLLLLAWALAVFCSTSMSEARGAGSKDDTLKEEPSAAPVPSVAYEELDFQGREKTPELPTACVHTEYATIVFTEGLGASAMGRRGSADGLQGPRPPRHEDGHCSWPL

mPD-1-Fc [8] = target: T3, mPD-1-Fc; test: SPR Biacore, mPD1-Fc (second m3A7 row)
mPD-1-Fc [9] = target: T3, mPD-1-Fc; test: blocking ELISA, mPD-1 to PD-L1
[10] = target: T5, mouse PD-1 expressed on cells; test: cell-based or functional assay; remark: listed apart in the source
[11] = target: T6, hPD1 (soluble, ELISA of Example 20) (human, UniProt Q15116 25-167, limits assumed); test: ELISA, hPD1
T6 sequence (Q15116 25-167 limits assumed): as the sequence (Q15116 25-167 limits assumed) above

[12] = target: T5, mouse PD-1 expressed on cells; test: flow cytometry, mPD-1-293 cells
hPD-1-Fc [13] = target: T2, hPD-1-Fc; test: SPR Biacore, hPD1-Fc
[14] = target: T6, hPD1 (soluble, ELISA of Example 20); test: blocking ELISA, hPD1 to hPDL1
mPD-1-Fc [15] = target: T3, mPD-1-Fc; test: ELISA, mPD-1-Fc
[16] = target: T1, mPD1 (soluble, ELISA of Examples 20 and …); test: ELISA, biotin-mPD1 on streptavidin
mPD-1-his [17] = target: T4, mPD-1-his; test: ELISA, mPD-1-his on streptavidin
mPD-1-Fc [18] = target: T3, mPD-1-Fc; test: ELISA, mPD-1-Fc on streptavidin
[19] = target: T5, mouse PD-1 expressed on cells; test: flow cytometry, mPD1-293 cells
[20] = target: T5, mouse PD-1 expressed on cells; test: flow cytometry, mPD1-eff cells
[21] = target: T7, human PD-1 expressed on cells (human, UniProt Q15116 25-288); test: flow cytometry, SEB-activated PBMC donor two
T7 construct: whole, on cells
T7 sequence (Q15116 25-288): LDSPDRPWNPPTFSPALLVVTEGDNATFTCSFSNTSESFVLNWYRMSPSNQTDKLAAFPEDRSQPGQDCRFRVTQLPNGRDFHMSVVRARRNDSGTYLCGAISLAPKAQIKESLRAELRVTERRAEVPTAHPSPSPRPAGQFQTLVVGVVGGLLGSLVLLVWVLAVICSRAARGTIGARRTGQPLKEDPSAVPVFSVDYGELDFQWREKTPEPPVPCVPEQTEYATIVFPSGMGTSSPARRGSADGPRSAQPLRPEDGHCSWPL

hPD-1-Fc [22] = target: T2, hPD-1-Fc; test: SPR Biacore T200, PD-1-Fc immobilised
hPD-1-Fc [23] = target: T2, hPD-1-Fc; test: SPR, range over experiments
hPD-1-Fc [24] = target: T2, hPD-1-Fc; test: SPR, Exp. 3
hPD-1-his [25] = target: T8, hPD-1-his (human, UniProt Q15116 25-167); test: SPR, Exp. 3
T8 construct: domain: IgV domain; monomer in solution; biotin-labelled where captured by streptavidin; also called biotin-hPD-1-his
T8 sequence (Q15116 other isoform, or with tags, fused parts or gaps limits assumed): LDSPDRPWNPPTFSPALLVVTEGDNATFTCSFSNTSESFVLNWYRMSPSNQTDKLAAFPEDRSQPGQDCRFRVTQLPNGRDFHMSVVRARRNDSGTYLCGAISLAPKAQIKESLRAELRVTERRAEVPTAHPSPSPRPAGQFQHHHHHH

hPD-1-Fc [26] = target: T2, hPD-1-Fc; test: SPR, Exp. 1
hPD-1-his [27] = target: T8, hPD-1-his; test: SPR, Exp. 1
hPD-1-Fc [28] = target: T2, hPD-1-Fc; test: blocking ELISA, hPD-1-Fc to hPD-L1-Fc
[29] = target: T7, human PD-1 expressed on cells; test: flow cytometry, hPD-1-Jurkat cells
hPD-1-his [30] = target: T8, hPD-1-his; test: ELISA, biotin-hPD-1-his on streptavidin
hPD-1-Fc [31] = target: T2, hPD-1-Fc; test: blocking ELISA, PD-1 to PD-L2
[32] = target: T7, human PD-1 expressed on cells; test: flow cytometry, activated PBMC donor FA
[33] = target: T7, human PD-1 expressed on cells; test: flow cytometry, hPD1-Jurkat cells
[34] = target: T7, human PD-1 expressed on cells; test: flow cytometry, activated PBMC donor two
hPD-1-his [35] = target: T8, hPD-1-his; test: ELISA, PD-1-his on anti-his
hPD-1-Fc [36] = target: T2, hPD-1-Fc; test: ELISA, hPD1-Fc coated
hPD-1-his [37] = target: T8, hPD-1-his; test: SPR Biacore T200, PD-1-his immobilised
[38] = target: T7, human PD-1 expressed on cells; test: cell-based or functional assay
hPD-1-Fc [39] = target: T2, hPD-1-Fc; test: blocking ELISA, PD-1 to PD-L1
hPD-1-Fc [40] = target: T2, hPD-1-Fc; test: ELISA, PD-1-Fc coated
hPD-1-his [41] = target: T8, hPD-1-his; test: ELISA, biotin-PD-1-his on streptavidin
hPD-1-his [42] = target: T8, hPD-1-his; test: SPR, Exp. 4
hPD-1-his [43] = target: T8, hPD-1-his; test: ELISA, hPD-1-his on anti-his
[44] = target: T7, human PD-1 expressed on cells; test: flow cytometry, hPD1-293 cells
[45] = target: T7, human PD-1 expressed on cells; test: flow cytometry, SEB-activated PBMC donor
[46] = target: T7, human PD-1 expressed on cells; test: flow cytometry, hPD-1-293 cells
hPD-1-Fc [47] = target: T2, hPD-1-Fc; test: SPR, Exp. 2
hPD-1-his [48] = target: T8, hPD-1-his; test: SPR, Exp. 2

B1: m3A7 (antibody, V domains shown)
VH: QVQLVQSGAEVKKPGASVKVSCKASGHTFTSYYIHWVRQAPGQGLEWMGIINPSGGSTSYAQKFQGRVTMTRDTSTSTVYMELSSLRSEDTAVYYCARDRAYGGAGDYWGQGTLVTVSS
VL: DIQMTQSPSSLSASVGDRVTITCRASRSISNWLAWYQQKPGKAPKLLIYAASSLQSGVPSRFSGSGSGTDFTLTISSLQPEDFATYYCQQSYSAPVTFGQGTKVEIK
notes: R3A9 derivative; also called 7115C
- IC50 [1]: 0.537 nM
- EC50 [2]: 0.349 nM
- Kd (hPD-1-Fc [3]): 19.9 nM
- koff (hPD-1-Fc [3]): 0.00263 s⁻¹
- kon (hPD-1-Fc [3]): 132000 M⁻¹ s⁻¹
- Kd (mPD-1-Fc [4]): 2.53 nM
- koff (mPD-1-Fc [4]): 0.000659 s⁻¹
- kon (mPD-1-Fc [4]): 261000 M⁻¹ s⁻¹
- Kd (mPD-1-his [5]): 3.03 nM
- koff (mPD-1-his [5]): 0.000823 s⁻¹
- kon (mPD-1-his [5]): 272000 M⁻¹ s⁻¹
- Kd (mPD-1-his [6]): 1.98 nM
- koff (mPD-1-his [6]): 0.000479 s⁻¹
- kon (mPD-1-his [6]): 241000 M⁻¹ s⁻¹
- IC50, Promega blockade bioassay [7]: 0.561 nM
- Kd (mPD-1-Fc [8]): 1.86 nM
- koff (mPD-1-Fc [8]): 0.000406 s⁻¹
- kon (mPD-1-Fc [8]): 219000 M⁻¹ s⁻¹
- IC50 (mPD-1-Fc [9]): 0.102 nM
- IC 50, Promega assay [10]: 0.0709 µg/mL
- EC50 [11]: 0.63 nM
- EC50 [12]: 0.228 nM
- Kd (hPD-1-Fc [13]): 103 nM
- koff (hPD-1-Fc [13]): 0.0176 s⁻¹
- kon (hPD-1-Fc [13]): 171000 M⁻¹ s⁻¹
- IC50 [14]: 37.8 nM
- EC50 (mPD-1-Fc [15]): 0.834 nM
- EC50 [16]: 0.268 nM
- EC50 (mPD-1-his [17]): 0.251 nM
- EC50 (mPD-1-Fc [18]): 0.187 nM
- EC50 [19]: 0.609 nM
- EC50 [20]: 0.27 nM

B2: RMP1-14 (antibody, V domains shown)
VH: EVQLQESGPGLVKPSQSLSLTCSVTGYSITSSYRWNWIRKFPGNRLEWMGYINSAGISNYNPSLKRRISITRDTSKNQFFLQVNSVTTEDAATYYCARSDNMGTTPFTYWGQGTLVTVSS
VL: DIVMTQGTLPNPVPSGESVSITCRSSKSLLYSDGKTYLNWYLQRPGQSPQLLIYWMSTRASGVSDRFSGSGSGTDFTLKISGVEAEDVGIYYCQQGLEFPTFGGGTKLELK
- IC50 (mPD-1-Fc [9]): 0.635 nM

B3: 33C4 (antibody, V domains shown)
VH: QVQLVQSGAEVKKPGSSVKVSCKASGGTFSSSVISWVRQAPGQGLEWMGGIIPIFGTANYAQKFQGRVTITADESTSTAYMELSSLRSEDTAVYYCAREGLGCSGGSCYSGYYYGMDVWGQGTTVTVSS
VL: DIVMTQSPLSLPVTPGEPASISCRSSQSLLHSNGYNYLDWYLQKPGQSPQLLIYEASSLHTGVPDRFSGSGSGTDFTLKISRVEAEDVGVYYCMQGSHWPYTFGQGTKLEIK
notes: also called 780_39
- MFI, 5 nM [21]: 66.9 MFI
- Kd (hPD-1-Fc [22]): 0.575 nM
- Kd (hPD-1-Fc [23]): 0.01 to 0.02 nM
- Kd (hPD-1-Fc [24]): < 0.01 nM
- Kd (hPD-1-his [25]): 0.274 nM
- Kd (hPD-1-Fc [26]): < 0.022 nM
- Kd (hPD-1-his [27]): 0.704 nM
- IC50 (hPD-1-Fc [28]): 2.06 nM
- Inhibition % at 5.6 nM (hPD-1-Fc [28]): 91.2%
- Inhibition % at 50 nM (hPD-1-Fc [28]): 92.5%
- MFI, 5 nM [29]: 65.2 MFI
- EC50 (hPD-1-his [30]): 0.209 nM
- OD450 at 10 nM (hPD-1-his [30]): 0.95 OD450
- IC50 (hPD-1-Fc [31]): 3.3 nM
- Inhibition, % at 3.7 nM (hPD-1-Fc [31]): 53.4%
- Inhibition, % at 100 nM (hPD-1-Fc [31]): 94.6%
- EC50 [32]: 0.041 nM
- MFI at 25 nM [32]: 17.6 MFI
- EC50 [33]: 0.084 nM
- MFI at 5 nM [33]: 98.3 MFI
- EC50 [34]: 0.05 nM
- MFI at 25 nM [34]: 18.7 MFI
- EC50 (hPD-1-his [35]): 0.142 nM
- EC50 (hPD-1-Fc [36]): 0.177 nM
- OD450 at 10 nM (hPD-1-Fc [36]): 0.925 OD450
- Kd (hPD-1-his [37]): 6.73 nM
- EC50, Promega blockade bioassay [38]: 0.165 µg/mL
- Fold induction [38]: 6.24 fold
- IC50 (hPD-1-Fc [39]): 2.77 nM
- Inhibition % at 50 nM (hPD-1-Fc [39]): 93.3%
- Inhibition, % at 5.56 nM (hPD-1-Fc [39]): 88.9%
- EC50 (hPD-1-Fc [40]): 0.128 nM
- EC50 (hPD-1-his [41]): 0.131 nM
- Kd (hPD-1-his [42]): < 0.054 nM
- EC50 (hPD-1-his [43]): 0.061 nM
- OD450 at 10 nM (hPD-1-his [43]): 0.578 OD450
- EC50 [44]: 0.075 nM
- MFI at 5 nM [44]: 48.2 MFI
- MFI, 5 nM [45]: 77.8 MFI
- MFI, 5 nM [46]: 179 MFI
- Kd (hPD-1-Fc [47]): < 0.01 nM
- Kd (hPD-1-his [48]): 0.205 nM
